Key:
P18 peptide = system: T1, P18 peptide
T1 sequence: RRYWYWRR

P16 peptide = system: T2, P16 peptide
T2 sequence: RRWWRRYY

P17 peptide = system: T3, P17 peptide
T3 sequence: RRRYWYYR

Human tyrosinase was tested, and the “reduction of human tyrosinase activity at 200 µM (L-dopa substrate)” value (“reduction of human tyrosinase activity” for short) (P18 peptide) was 25% for P18, the “reduction of human tyrosinase activity” value (P16 peptide) was “human tyrosinase activity was reduced by 30% for P16” and the “reduction of human tyrosinase activity” value (P17 peptide) was 12% for P17.
